# Data reported in patent US20060025335A1.
# Key:
# [1] = biological target: somatostatin receptor 3 (pCMV6c-SSTR3); assay: cell-based or functional assay
# [2] = biological target: Myc-tagged UNC5H2 (pMyc-UNC5H2) (human) (UniProt Q8IZJ1); assay: cell-based or functional assay
# Chain of UniProt Q8IZJ1 (Q8IZJ1 other isoform, or with tags, fused parts or gaps): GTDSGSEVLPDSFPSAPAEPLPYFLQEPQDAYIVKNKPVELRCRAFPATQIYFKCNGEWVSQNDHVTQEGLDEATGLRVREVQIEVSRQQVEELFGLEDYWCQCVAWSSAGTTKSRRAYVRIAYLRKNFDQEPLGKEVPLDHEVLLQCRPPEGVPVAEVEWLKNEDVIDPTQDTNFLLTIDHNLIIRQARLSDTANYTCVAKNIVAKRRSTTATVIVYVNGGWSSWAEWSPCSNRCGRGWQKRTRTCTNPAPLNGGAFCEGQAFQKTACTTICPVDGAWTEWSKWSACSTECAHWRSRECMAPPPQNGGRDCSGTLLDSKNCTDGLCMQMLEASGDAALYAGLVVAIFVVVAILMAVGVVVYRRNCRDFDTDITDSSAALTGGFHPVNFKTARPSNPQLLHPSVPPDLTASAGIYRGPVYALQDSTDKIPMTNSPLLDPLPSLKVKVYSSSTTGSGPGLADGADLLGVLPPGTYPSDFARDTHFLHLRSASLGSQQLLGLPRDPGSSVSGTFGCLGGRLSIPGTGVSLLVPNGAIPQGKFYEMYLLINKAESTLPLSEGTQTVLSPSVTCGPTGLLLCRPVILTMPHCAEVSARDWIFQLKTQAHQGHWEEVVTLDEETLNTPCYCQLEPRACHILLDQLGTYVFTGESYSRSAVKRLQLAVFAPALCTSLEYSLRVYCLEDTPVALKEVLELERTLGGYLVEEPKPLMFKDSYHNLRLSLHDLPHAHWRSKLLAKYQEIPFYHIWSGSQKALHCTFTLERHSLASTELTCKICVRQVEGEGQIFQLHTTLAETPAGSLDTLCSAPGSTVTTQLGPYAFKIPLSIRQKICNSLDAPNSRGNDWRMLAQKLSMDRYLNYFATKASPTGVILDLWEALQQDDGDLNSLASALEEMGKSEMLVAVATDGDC
substance,measurement,setting,value
somatostatin-14 (from UniProt P61278 89-116) (peptide),decrease in cAMP accumulation in transfected COS7 cells,[1],32%
Netrin 1 (R&D Systems) (ligand),"cAMP accumulation in transfected COS7 cells, Netrin 1 given before SST-14",[2],41%
